# Reference: IntAct's records for PubMed 9468140
# B1: Retinoblastoma-associated protein (Homo sapiens), P06400 (parent)
# chain: MPPKTPRKTAATAAAAAAEPPAPPPPPPPEEDPEQDSGPEDLPLVRLEFEETEEPDFTALCQKLKIPDHVRERAWLTWEKVSSVDGVLGGYIQKKKELWGICIFIAAVDLDEMSFTFTELQKNIEISVHKFFNLLKEIDTSTKVDNAMSRLLKKYDVLFALFSKLERTCELIYLTQPSSSISTEINSALVLKVSWITFLLAKGEVLQMEDDLVISFQLMLCVLDYFIKLSPPMLLKEPYKTAVIPINGSPRTPRRGQNRSARIAKQLENDTRIIEVLCKEHECNIDEVKNVYFKNFIPFMNSLGLVTSNGLPEVENLSKRYEEIYLKNKDLDARLFLDHDKTLQTDSIDSFETQRTPRKSNLDEEVNVIPPHTPVRTVMNTIQQLMMILNSASDQPSENLISYFNNCTVNPKESILKRVKDIGYIFKEKFAKAVGQGCVEIGSQRYKLGVRLYYRVMESMLKSEEERLSIQNFSKLLNDNIFHMSLLACALEVVMATYSRSTSQNLDSGTDLSFPWILNVLNLKAFDFYKVIESFIKAEGNLTREMIKHLERCEHRIMESLAWLSDSPLFDLIKQSKDREGPTDHLESACPLNLPLQNNHTAADMYLSPVRSPKKKGSTTRVNSTANAETQATSAFQTQKPLKSTSLSLFYKKVYRLAYLRLNTLCERLLSEHPELEHIIWTLFQHTLQNEYELMRDRHLDQIMMCSMYGICKVKNIDLKFKIIVTAYKDLPHAVQETFKRVLIKEEEYDSIIVFYNSVFMQRLKTNILQYASTRPPTLSPIPHIPRSPYKFPSSPLRIPGGNIYISPLKSPYKISEGLPTPTKMTPRSRILVSIGESFGTSEKFQKINQMVCNSDRVLKRSAEGSNPPKPLKKLRFDIEGSDEADGSKHLPGESKFQQKLAEMTSTRTRMQKQKMNDSMDTSNKEEK
# Variants of: B1
# Conditions: with hdac1_human HDAC1, Q13547
# Chain of hdac1_human HDAC1, Q13547 (Q13547 whole entry): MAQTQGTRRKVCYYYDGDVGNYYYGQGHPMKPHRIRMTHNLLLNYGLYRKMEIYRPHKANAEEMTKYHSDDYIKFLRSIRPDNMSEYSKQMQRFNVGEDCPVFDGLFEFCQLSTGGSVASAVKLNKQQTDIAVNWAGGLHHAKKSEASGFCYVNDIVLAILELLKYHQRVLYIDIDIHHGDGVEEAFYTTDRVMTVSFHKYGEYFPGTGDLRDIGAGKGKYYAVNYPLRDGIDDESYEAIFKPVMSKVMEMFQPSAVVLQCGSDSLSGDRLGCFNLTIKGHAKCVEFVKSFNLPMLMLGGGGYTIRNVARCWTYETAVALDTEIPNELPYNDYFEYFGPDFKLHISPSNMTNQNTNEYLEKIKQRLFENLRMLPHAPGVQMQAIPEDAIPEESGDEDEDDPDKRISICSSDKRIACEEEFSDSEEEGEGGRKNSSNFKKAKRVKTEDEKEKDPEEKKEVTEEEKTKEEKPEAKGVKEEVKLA
row,effect of a mutation on the interaction,Variant
1,disrupting interaction,C706F
